From US7642231 (MAYO FOUNDATION FOR MEDICAL EDUCATION AND RESEARCH A …, dated 2010)
Like-named read-outs stand apart in the source and are kept apart here. Numbered stars: 1 amine (or outer) side, 2 acyl side, 3 side chain; on linkers, the order of the positions; unused ones are H or OH. Square brackets hold non-standard residues; d marks the D form. Ends that are not written are not given here. dneoTrp = D-neo-Trp, (2R)-2-amino-3-(1H-indol-4-yl)propanoic acid, O=C([C@@H](Cc1cccc2[nH]ccc12)N[*:1])[*:2]; Ala(indol-4-yl) = N[C@@H](Cc1cccc2[nH]ccc12)C(=O)O; 1Nal = N[C@@H](Cc1cccc2ccccc12)C(=O)O; NMeR = CN[C@@H](CCCNC(=N)N)C(=O)O; Tle = CC(C)(C)[C@H](N)C(=O)O

What was measured:
[1] = target: NT binding sites within rat brain (PAG and rest of brain homogenates) (rat); assay: 0.3 nM [125I]NT binding to PAG homogenate of control rats
[2] = target: NT binding sites within rat brain (PAG and rest of brain homogenates) (rat); assay: 0.3 nM [125I]NT binding to PAG homogenate of NT69L-treated rats
[3] = target: NT binding sites within rat brain (PAG and rest of brain homogenates) (rat); assay: 0.3 nM [125I]NT binding to rest-of-brain homogenate of NT69L-treated rats
human NTR1 [4] = target: T1, human NTR1 (human, UniProt P30989 1-418); assay: cell-based or functional assay
rat NTR1 [5] = target: T2, rat NTR1 (rat, UniProt P20789 1-424); assay: cell-based or functional assay
[6] = target: Dopamine receptors, human brain tissue (human) (UniProt P14416); assay: radiolabeled competitive binding assay, human brain tissue
[7] = target: adrenergic α2 receptors, human brain tissue (human); assay: as above
[8] = target: T3, 5HT2A receptor in human brain tissue (human, UniProt P28223 1-471); assay: competition with [3H]ketanserin, human brain tissue
T3 construct: whole, on cells; Native receptor in human brain tissue, labeled with [3H]ketanserin; also called serotonin receptor

human NTR1 [9] = target: T1, human NTR1; assay: competition with [3H]NT, membranes of CHO-K1 cells expressing human NTR1
rat NTR1 [10] = target: T2, rat NTR1; assay: competition with [3H]NT, membranes of CHO-K1 cells expressing rat NTR1
Protocol: (§1) For binding assays, crude membranal preparations were prepared by centrifugation of the cellular pellet at 35,600×g for ten minutes. The supernatant was decanted and discarded, and the cellular pellet was resuspended in 2 mL of Tris-HCl, 1 mM EDTA (pH 7.4) followed by homogenization with a Brinkmann Polytron at setting 6 for ten seconds. Centrifugation was repeated as above and the supernatant was decanted and discarded. The resulting final cellular pellet was resuspended in 50 mM Tris-HCl, 1 mM EDTA, 0.1% bovine serum albumin, and 0.2 mM bacitracin.
(§2) Incubation was at 20° C. for 30 minutes. Each reaction was terminated by addition of cold 0.9% NaCl (5×1.5 mL) followed by rapid filtration through a GF/B filter strip that had been pretreated with 0.2% polyethylenimine.

rat NTR1 [11] = target: T2, rat NTR1; assay: radiolabeled competitive binding assay, CHO cells expressing rat NTR (repeats Table II)
Protocol: as §1, §2

human NTR1 [12] = target: T1, human NTR1; assay: radiolabeled competitive binding assay, CHO cells expressing human NTR (repeats Table II)
Protocol: as §1, §2

[13] = target: adrenergic α1 receptors, human brain tissue (human); assay: radiolabeled competitive binding assay, human brain tissue
human NTR1 [14] = target: T1, human NTR1; assay: cell-based or functional assay; remark: listed apart in the source
human NTR1 [15] = target: T1, human NTR1; assay: competition with [3H]NT, membranes of CHO-K1 cells expressing human NTR1
Protocol: as §1, §2

human NTR1 [16] = target: T1, human NTR1; assay: competition with [3H]NT, CHO-K1 membranes; receptor not given, human taken from the context
Protocol: as §1, §2

human NTR1 [17] = target: T1, human NTR1; assay: cell-based or functional assay; remark: listed apart in the source
human NTR1 [18] = target: T1, human NTR1; assay: competition with [3H]NT, CHO-K1 membranes; receptor not given, human fits Table II
Protocol: as §1, §2

T3 sequence (P28223 whole entry): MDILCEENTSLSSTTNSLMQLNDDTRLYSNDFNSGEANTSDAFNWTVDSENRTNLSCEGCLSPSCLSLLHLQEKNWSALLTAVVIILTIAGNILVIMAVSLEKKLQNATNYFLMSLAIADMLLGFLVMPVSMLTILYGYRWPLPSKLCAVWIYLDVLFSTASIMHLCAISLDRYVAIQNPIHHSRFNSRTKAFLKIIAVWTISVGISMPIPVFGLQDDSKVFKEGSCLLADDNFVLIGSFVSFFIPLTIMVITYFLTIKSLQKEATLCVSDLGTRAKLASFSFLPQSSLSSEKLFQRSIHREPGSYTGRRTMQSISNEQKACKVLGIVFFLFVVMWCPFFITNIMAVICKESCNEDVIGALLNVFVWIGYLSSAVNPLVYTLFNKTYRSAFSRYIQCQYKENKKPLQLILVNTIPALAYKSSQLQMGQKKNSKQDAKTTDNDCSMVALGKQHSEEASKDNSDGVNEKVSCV
T2 sequence (P20789 whole entry): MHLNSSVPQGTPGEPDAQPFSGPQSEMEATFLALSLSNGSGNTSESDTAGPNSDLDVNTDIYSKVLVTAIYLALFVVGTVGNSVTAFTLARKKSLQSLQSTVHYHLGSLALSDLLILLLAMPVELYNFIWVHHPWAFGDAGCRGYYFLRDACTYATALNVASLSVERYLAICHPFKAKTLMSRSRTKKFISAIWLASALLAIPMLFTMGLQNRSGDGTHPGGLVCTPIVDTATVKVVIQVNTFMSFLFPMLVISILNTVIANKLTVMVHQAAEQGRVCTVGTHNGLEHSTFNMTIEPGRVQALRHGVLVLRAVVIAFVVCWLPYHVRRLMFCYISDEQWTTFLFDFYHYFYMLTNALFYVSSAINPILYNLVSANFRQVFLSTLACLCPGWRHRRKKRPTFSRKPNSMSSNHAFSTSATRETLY
T1 sequence (P30989 whole entry): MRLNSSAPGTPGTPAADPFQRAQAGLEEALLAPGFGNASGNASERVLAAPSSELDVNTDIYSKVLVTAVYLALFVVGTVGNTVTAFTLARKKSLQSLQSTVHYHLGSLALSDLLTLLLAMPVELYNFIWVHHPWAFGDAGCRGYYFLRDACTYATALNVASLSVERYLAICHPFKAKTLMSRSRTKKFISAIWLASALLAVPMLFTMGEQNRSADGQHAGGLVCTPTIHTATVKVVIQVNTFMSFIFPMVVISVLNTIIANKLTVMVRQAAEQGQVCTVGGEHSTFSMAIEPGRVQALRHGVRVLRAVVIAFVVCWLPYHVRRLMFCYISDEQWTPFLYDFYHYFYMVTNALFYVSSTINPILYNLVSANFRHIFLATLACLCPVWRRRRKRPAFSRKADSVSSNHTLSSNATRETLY
Dopamine receptors, human brain tissue (human), sequence (P14416 whole entry): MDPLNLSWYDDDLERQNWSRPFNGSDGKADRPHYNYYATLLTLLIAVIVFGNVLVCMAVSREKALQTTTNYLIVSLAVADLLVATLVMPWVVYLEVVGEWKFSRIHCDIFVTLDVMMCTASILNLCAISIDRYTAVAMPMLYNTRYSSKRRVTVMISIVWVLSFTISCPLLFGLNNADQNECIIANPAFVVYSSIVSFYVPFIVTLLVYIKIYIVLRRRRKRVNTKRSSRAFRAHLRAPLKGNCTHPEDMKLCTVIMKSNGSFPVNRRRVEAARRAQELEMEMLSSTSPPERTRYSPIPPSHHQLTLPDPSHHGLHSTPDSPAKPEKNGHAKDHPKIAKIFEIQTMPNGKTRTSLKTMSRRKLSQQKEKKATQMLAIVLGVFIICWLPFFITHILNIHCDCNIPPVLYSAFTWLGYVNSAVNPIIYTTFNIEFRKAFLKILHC

Row | Molecule | PI Turnover EC50 (rat NTR1 [5]) [nM] | Kd [8] [nM] | Kd (rat NTR1 [10]) [nM] | Kd (human NTR1 [15]) [nM] | other results
1 | Neurotensin (NT) (peptide) | – | – | – | – | dpm/µg protein (dpm/µg protein) [1]: 2.34; dpm/µg protein (dpm/µg protein) [2]: 1.89; dpm/µg protein (dpm/µg protein) [3]: 2.1
2 | NT69L (peptide) | 1.34 | 34600 | 0.82 | – | PI Turnover EC50 (human NTR1 [4]): 2.3 nM; PI turnover potency, fold improvement over Eisai analog (human NTR1 [4]): 130 fold; PI turnover potency, fold improvement over Eisai analog (rat NTR1 [5]): 2 fold; Kd [6]: 13300 nM; Kd [7]: 58600 nM; Kd (human NTR1 [9]): 1.55 nM; fold increase in binding affinity over Eisai (human NTR1 [9]): 60 fold; fold increase in binding affinity over Eisai (rat NTR1 [10]): 6 fold; Kd (rat NTR1 [11]): 0.82 nM; Kd (human NTR1 [12]): 1.55 nM
3 | [dK]RP[Ala(indol-4-yl)]IL (NT(8-13) analog) [NT67L] | 13 | 7400 | 0.21 | – | Kd [13]: 6900 nM; Kd (rat NTR1 [11]): 0.21 nM
4 | RRPYIL (Synthetic hexapeptide, residues 8-13 of neurotensin) [NT(8-13)] | – | 4400 | – | – | –
5 | RRPWIL [NTW] | – | – | 0.34 | 3.2 | PI Turnover EC50 (human NTR1 [14]): 110 nM; fold reduction in binding affinity compared to NT64L (human NTR1 [16]): > 30 fold
6 | RPYIL (Synthetic pentapeptide, residues 9-13 of neurotensin) [NT(9-13)] | – | 6340 | 46 | 30 | PI Turnover EC50 (human NTR1 [14]): 380 nM; fold weaker than NT(8-13) (rat NTR1 [10]): > 200 fold; fold weaker than NT(8-13) (human NTR1 [15]): > 200 fold
7 | [NMeR]KPW[Tle]L (Hexapeptide N-methyl-Arg, L-Lys, L-Pro, L-Trp, tert-Leu, L-Leu (Tsuchiya et al., EP application 89104302.8); also called Eisai compound; Eisai analog) [Eisai] | 3.1 | – | 5.4 | 95 | PI turnover potency, fold weaker at human than at rat NT receptor (human NTR1 [17]): ~100 fold; PI Turnover EC50 (human NTR1 [14]): 300 nM; fold weaker than at the rat receptor (human NTR1 [15]): ~20 fold
8 | RRP[Ala(indol-4-yl)]IL (NT(8-13) analog) [NT64L] | 2.3 | 6600 | 0.1 | – | –
9 | [dK]RPYIL (NT(8-13) analog) [NT2] | – | 6800 | 0.8 | – | –
10 | RRP[dneoTrp]IL (NT(8-13) analog) [NT64D] | – | – | 3.8 | – | –
11 | RRP[1Nal]IL (NT(8-13) analog) [NT34] | – | – | 0.046 | – | –
12 | RRP[Ala(indol-4-yl)][Tle]L (NT(8-13) analog) [NT65L] | – | – | 0.075 | 0.32 | fold decrease in binding affinity compared to NT64L (human NTR1 [18]): 3 fold
